Assay results reported in paper PMC7182499 (Journal of inherited metabolic disease, 2019).

T1: ALDH7A1 (aldehyde dehydrogenase 7A1; antiquitin) (Homo sapiens, UniProt P49419, E427Q)
T1 sequence (P49419 29-539 E427Q): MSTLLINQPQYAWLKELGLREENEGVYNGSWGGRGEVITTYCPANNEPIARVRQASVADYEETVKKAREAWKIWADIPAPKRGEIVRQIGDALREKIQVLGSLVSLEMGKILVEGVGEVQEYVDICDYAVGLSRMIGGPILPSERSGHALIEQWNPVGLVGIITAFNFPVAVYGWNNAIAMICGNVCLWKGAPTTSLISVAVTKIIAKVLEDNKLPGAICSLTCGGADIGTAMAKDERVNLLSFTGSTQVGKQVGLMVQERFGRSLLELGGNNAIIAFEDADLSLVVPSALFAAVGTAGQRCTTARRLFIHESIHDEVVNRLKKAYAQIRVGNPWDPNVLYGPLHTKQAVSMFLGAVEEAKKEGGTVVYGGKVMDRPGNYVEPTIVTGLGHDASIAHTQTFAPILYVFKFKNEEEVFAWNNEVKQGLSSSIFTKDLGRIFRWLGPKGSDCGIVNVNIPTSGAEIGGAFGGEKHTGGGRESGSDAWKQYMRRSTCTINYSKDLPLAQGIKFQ

T2: ALDH7A1 (aldehyde dehydrogenase 7A1; antiquitin) (Homo sapiens, UniProt P49419, E427G)
T2 sequence (P49419 29-539 E427G): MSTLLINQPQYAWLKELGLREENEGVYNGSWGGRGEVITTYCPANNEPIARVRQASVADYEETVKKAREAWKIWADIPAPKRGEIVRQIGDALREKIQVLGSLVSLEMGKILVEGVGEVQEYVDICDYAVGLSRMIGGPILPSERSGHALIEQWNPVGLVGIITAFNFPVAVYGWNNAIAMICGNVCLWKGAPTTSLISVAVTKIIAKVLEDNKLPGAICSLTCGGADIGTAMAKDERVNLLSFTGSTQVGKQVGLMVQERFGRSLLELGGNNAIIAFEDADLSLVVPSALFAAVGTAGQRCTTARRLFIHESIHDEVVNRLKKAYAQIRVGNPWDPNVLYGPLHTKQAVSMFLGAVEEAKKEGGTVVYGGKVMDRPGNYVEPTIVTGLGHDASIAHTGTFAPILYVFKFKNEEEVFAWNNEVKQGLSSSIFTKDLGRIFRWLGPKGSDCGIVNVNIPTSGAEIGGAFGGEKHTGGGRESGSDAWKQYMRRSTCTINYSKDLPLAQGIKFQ


How the values were obtained:
[1] = target: T1, ALDH7A1 (aldehyde dehydrogenase 7A1; antiquitin); test: X-ray crystal structure, […] Å, co-crystallisation; format: binding; conditions: 15 mM NAD+; pH 6.2; ADP portion ordered, NMN disordered
[2] = target: T2, ALDH7A1 (aldehyde dehydrogenase 7A1; antiquitin); test: X-ray crystal structure, […] Å, co-crystallisation; format: binding; conditions: 5 mM NAD+; pH 6.5; NMN disordered
[3] = target: the molecule itself; test: SAXS
[4] = target: the molecule itself; test: crystal structure

Row | Molecule | stoichiometry N [4] | further results
1 | NC(=O)c1ccc[n+]([C@@H]2O[C@H](COP(=O)(O)OP(=O)(O)OC[C@H]3O[C@@H](n4cnc5c(N)ncnc54)[C@H](O)[C@@H]3O)[C@@H](O)[C@H]2O)c1 [NAD^+] | – | X-ray crystal structure, 2.06 Å, co-crystallisation [1]: The crystal structure of E427Q complexed with NAD^+ was determined in space group C2; X-ray crystal structure, 2.15 Å, co-crystallisation [2]: the NMN of NAD^+ bound to E427G is disordered
2 | wild-type ALDH7A1 (aldehyde dehydrogenase 7A1) (enzyme, human, UniProt P49419 27-539, looked up) AFMSTLLINQPQYAWLKELGLREENEGVYNGSWGGRGEVITTYCPANNEPIARVRQASVADYEETVKKAREAWKIWADIPAPKRGEIVRQIGDALREKIQVLGSLVSLEMGKILVEGVGEVQEYVDICDYAVGLSRMIGGPILPSERSGHALIEQWNPVGLVGIITAFNFPVAVYGWNNAIAMICGNVCLWKGAPTTSLISVAVTKIIAKVLEDNKLPGAICSLTCGGADIGTAMAKDERVNLLSFTGSTQVGKQVGLMVQERFGRSLLELGGNNAIIAFEDADLSLVVPSALFAAVGTAGQRCTTARRLFIHESIHDEVVNRLKKAYAQIRVGNPWDPNVLYGPLHTKQAVSMFLGAVEEAKKEGGTVVYGGKVMDRPGNYVEPTIVTGLGHDASIAHTETFAPILYVFKFKNEEEVFAWNNEVKQGLSSSIFTKDLGRIFRWLGPKGSDCGIVNVNIPTSGAEIGGAFGGEKHTGGGRESGSDAWKQYMRRSTCTINYSKDLPLAQGIKFQ | – | stoichiometry N [3]: 4
3 | ALDH7A1 E427D (Glu427Asp) (enzyme, human, UniProt P49419 27-539, looked up) AFMSTLLINQPQYAWLKELGLREENEGVYNGSWGGRGEVITTYCPANNEPIARVRQASVADYEETVKKAREAWKIWADIPAPKRGEIVRQIGDALREKIQVLGSLVSLEMGKILVEGVGEVQEYVDICDYAVGLSRMIGGPILPSERSGHALIEQWNPVGLVGIITAFNFPVAVYGWNNAIAMICGNVCLWKGAPTTSLISVAVTKIIAKVLEDNKLPGAICSLTCGGADIGTAMAKDERVNLLSFTGSTQVGKQVGLMVQERFGRSLLELGGNNAIIAFEDADLSLVVPSALFAAVGTAGQRCTTARRLFIHESIHDEVVNRLKKAYAQIRVGNPWDPNVLYGPLHTKQAVSMFLGAVEEAKKEGGTVVYGGKVMDRPGNYVEPTIVTGLGHDASIAHTDTFAPILYVFKFKNEEEVFAWNNEVKQGLSSSIFTKDLGRIFRWLGPKGSDCGIVNVNIPTSGAEIGGAFGGEKHTGGGRESGSDAWKQYMRRSTCTINYSKDLPLAQGIKFQ | 4 | –
4 | ALDH7A1 E427G (Glu427Gly) (enzyme, human, UniProt P49419 27-539, looked up) AFMSTLLINQPQYAWLKELGLREENEGVYNGSWGGRGEVITTYCPANNEPIARVRQASVADYEETVKKAREAWKIWADIPAPKRGEIVRQIGDALREKIQVLGSLVSLEMGKILVEGVGEVQEYVDICDYAVGLSRMIGGPILPSERSGHALIEQWNPVGLVGIITAFNFPVAVYGWNNAIAMICGNVCLWKGAPTTSLISVAVTKIIAKVLEDNKLPGAICSLTCGGADIGTAMAKDERVNLLSFTGSTQVGKQVGLMVQERFGRSLLELGGNNAIIAFEDADLSLVVPSALFAAVGTAGQRCTTARRLFIHESIHDEVVNRLKKAYAQIRVGNPWDPNVLYGPLHTKQAVSMFLGAVEEAKKEGGTVVYGGKVMDRPGNYVEPTIVTGLGHDASIAHTGTFAPILYVFKFKNEEEVFAWNNEVKQGLSSSIFTKDLGRIFRWLGPKGSDCGIVNVNIPTSGAEIGGAFGGEKHTGGGRESGSDAWKQYMRRSTCTINYSKDLPLAQGIKFQ | 4 | –
5 | ALDH7A1 E427Q (Glu427Gln) (enzyme, human, UniProt P49419 27-539, looked up) AFMSTLLINQPQYAWLKELGLREENEGVYNGSWGGRGEVITTYCPANNEPIARVRQASVADYEETVKKAREAWKIWADIPAPKRGEIVRQIGDALREKIQVLGSLVSLEMGKILVEGVGEVQEYVDICDYAVGLSRMIGGPILPSERSGHALIEQWNPVGLVGIITAFNFPVAVYGWNNAIAMICGNVCLWKGAPTTSLISVAVTKIIAKVLEDNKLPGAICSLTCGGADIGTAMAKDERVNLLSFTGSTQVGKQVGLMVQERFGRSLLELGGNNAIIAFEDADLSLVVPSALFAAVGTAGQRCTTARRLFIHESIHDEVVNRLKKAYAQIRVGNPWDPNVLYGPLHTKQAVSMFLGAVEEAKKEGGTVVYGGKVMDRPGNYVEPTIVTGLGHDASIAHTQTFAPILYVFKFKNEEEVFAWNNEVKQGLSSSIFTKDLGRIFRWLGPKGSDCGIVNVNIPTSGAEIGGAFGGEKHTGGGRESGSDAWKQYMRRSTCTINYSKDLPLAQGIKFQ | 4 | –
